# Reference: paper PMC5427846 (Scientific Reports, 2017)
# B1: YidC (natural protein, UniProt P25714 1-548, looked up)
# chain: MDSQRNLLVIALLFVSFMIWQAWEQDKNPQPQAQQTTQTTTTAAGSAADQGVPASGQGKLISVKTDVLDLTINTRGGDVEQALLPAYPKELNSTQPFQLLETSPQFIYQAQSGLTGRDGPDNPANGPRPLYNVEKDAYVLAEGQNELQVPMTYTDAAGNTFTKTFVLKRGDYAVNVNYNVQNAGEKPLEISSFGQLKQSITLPPHLDTGSSNFALHTFRGAAYSTPDEKYEKYKFDTIADNENLNISSKGGWVAMLQQYFATAWIPHNDGTNNFYTANLGNGIAAIGYKSQPVLVQPGQTGAMNSTLWVGPEIQDKMAAVAPHLDLTVDYGWLWFISQPLFKLLKWIHSFVGNWGFSIIIITFIVRGIMYPLTKAQYTSMAKMRMLQPKIQAMRERLGDDKQRISQEMMALYKAEKVNPLGGCFPLLIQMPIFLALYYMLMGSVELRQAPFALWIHDLSAQDPYYILPILMGVTMFFIQKMSPTTVTDPMQQKIMTFMPVIFTVFFLWFPSGLVLYYIVSNLVTIIQQQLIYRGLEKRGLHSREKKKS
# Target: T1, SecY without pBpa insertion (E. coli, UniProt P0AGA2 1-443)
# T1 sequence (looked up): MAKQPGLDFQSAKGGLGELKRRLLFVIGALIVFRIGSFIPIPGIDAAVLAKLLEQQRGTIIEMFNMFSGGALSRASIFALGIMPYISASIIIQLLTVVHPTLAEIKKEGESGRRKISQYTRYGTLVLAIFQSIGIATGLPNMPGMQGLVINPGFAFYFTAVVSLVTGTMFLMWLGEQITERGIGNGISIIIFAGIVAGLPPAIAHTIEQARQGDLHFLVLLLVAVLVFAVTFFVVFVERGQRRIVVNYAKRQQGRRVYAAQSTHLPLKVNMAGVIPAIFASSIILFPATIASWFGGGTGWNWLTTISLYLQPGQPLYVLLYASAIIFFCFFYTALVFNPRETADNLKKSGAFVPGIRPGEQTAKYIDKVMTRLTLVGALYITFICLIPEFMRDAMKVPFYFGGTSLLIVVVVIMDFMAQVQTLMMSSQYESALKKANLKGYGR
# Assay: cell-based or functional assay
binder,measurement,value
B1,anion to cation permeability ratio r (PCl/PK) of the FtsQ-RNC-YidC-SecYEG complex,5.1
